B1: 单克隆抗体ID 1 (phage粗培液, phage-displayed) (antibody, V domains shown)
VH: QVQLQQPGAELVKPGAPVKLSCKASGYTFTSYWMNWVKQRPGRGLEWIGRIDSSDSETHYNQKFKDKATLTVDKSSSTAYIQLSSLTSEDSAVYYCARQGEGLRRSWFPYWGQGTLVIVSA
VL: DIVLTQSPASLAVSLGQRATISCRASKSVSTSGYSYIHWYQQKPGQPPKLLIYVASNLQSGVPARFSGSGSGTDFTLNIHPVEEEDAATYYCQHIRELPWTFGGGTKLEIK
B2: 人源化抗体ID 4 (antibody, human IgG4 S228P, kappa, V domains shown)
VH: QVQLVQSGAEVKKPGASVKVSCKASGYTFTSYWMNWVRQAPGQGLEWMGRIDSSDSETHYNQKFKDRVTMTRDTSTSTVYMELSSLRSEDTAVYYCARQGEGLRRSWFPYWGQGTLVTVSS
VL: DIVMTQSPDSLAVSLGERATINCRASKSVSTSGYSYIHWYQQKPGQPPKLLIYVASNLQSGVPDRFSGSGSGTDFTLTISSLQAEDVAVYYCQHIRELPWTFGQGTKVEIKR

Legend:
[1] = biological target: 生物素化人源CD47蛋白 (购自Acro Biosystem) (human) (UniProt Q08722); test: phage ELISA; biotinylated human CD47 on streptavidin plate, phage supernatant, HRP anti-M13
[2] = biological target: 食蟹猴CD47 (on overexpressing CHO-K1 cells) (cynomolgus monkey); test: flow cytometry, phage supernatant on CHO-K1 overexpressing cynomolgus CD47, anti-M13 then fluorescent secondary
[3] = biological target: 人源CD47 (on cells: hCD47-overexpressing CHO-K1; Raji) (human) (UniProt Q08722); test: flow cytometry, phage supernatant on CHO-K1 overexpressing human CD47, anti-M13 then fluorescent secondary
[4] = biological target: 生物素化人源CD47蛋白 (购自Acro Biosystem) (human) (UniProt Q08722); test: phage ELISA; biotinylated human CD47 on streptavidin plate; ratio of experiment to control
[5] = biological target: 人源CD47 (on cells: hCD47-overexpressing CHO-K1; Raji) (human) (UniProt Q08722); test: flow cytometry, phage supernatant; MFI on human CD47 CHO-K1 over MFI on wild-type CHO-K1
[6] = biological target: 食蟹猴CD47 (on overexpressing CHO-K1 cells) (cynomolgus monkey); test: flow cytometry, phage supernatant; MFI on cynomolgus CD47 CHO-K1 over MFI on wild-type CHO-K1
[7] = biological target: 人源CD47 (on cells: hCD47-overexpressing CHO-K1; Raji) (human) (UniProt Q08722); test: flow cytometry on Raji cells (endogenous human CD47); Blank 58.3
[8] = biological target: 人源CD47 (on cells: hCD47-overexpressing CHO-K1; Raji) (human) (UniProt Q08722); test: flow cytometry, purified antibody 10 ug/ml on CHO-K1 overexpressing human CD47
[9] = biological target: 食蟹猴CD47 (on overexpressing CHO-K1 cells) (cynomolgus monkey); test: flow cytometry, purified antibody 10 ug/ml on CHO-K1 overexpressing cynomolgus CD47

Binder	OD450 (实验) [1]	MFI [2]	MFI [3]	实验/对照 (OD450 ratio) [4]	h-CHOK1/CHOK1 (MFI ratio to wild-type CHO-K1) [5]	c-CHOK1/CHOK1 (MFI ratio to wild-type CHO-K1) [6]	MFI [7]	MFI [8]	MFI [9]
B1	2.84 OD450	14600 MFI	18300 MFI	50.6	13.4	10.7	–	–	–
B2	–	–	–	–	–	–	14200 MFI	2040 MFI	786 MFI

Source: patent CN116478288A
